The text below walks through data of patent publication CN116554335A.

The target in the assay is T1, 合成的G6PC多肽 (synthetic G6PC immunogen peptide, sequence range 80-120aa) (human) (UniProt P35575).
T1 sequence (peptide, looked up): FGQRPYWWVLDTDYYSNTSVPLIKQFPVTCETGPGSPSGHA
Briefly: indirect ELISA, serial two-fold dilution of the antibody; coating antigen not stated (taken to be the immunogen peptide). Background: An ELISA detects its analyte on a solid surface through an enzyme-linked reagent.

B1: 兔单克隆抗体OTIR5G10 (rabbit anti-human glucose-6-phosphatase (G6PC) monoclonal antibody OTIR5G10) (antibody, V domains shown)
VH: QSVEESGGRLVTPGTPLTLTCTVSGADLSTYGVIWVRQAPGKGLEYIAAIVSGGRPYYRHWAKGRFTISKTSSTTVELKITSPTTEDTATYFCVLGNLWGQGTLVTVSS
VL: AQVLTQTASPVSAAVGGTVTINCQASQSVYSNNYLSWFQQKPGQPPKQLIYRASKLASGVSSRFKGSGSGTQFTLTISDVQCDDAATYYCLGGYDCSSADFGGGTEVVVK
As for B1, the 抗体效价 (ELISA titer) turned out to be 1.2e+07.
